From US20180155411A1 (Stanford University, published 2018)

Columns and labels:
[1] = molecular target: VP7 of rotavirus strain 69M (G8P[10]) (human rotavirus); assay: cell-based or functional assay
[2] = molecular target: VP7 of rotavirus strain #321 (G10P[11]) (human rotavirus); assay: cell-based or functional assay
[3] = molecular target: T1, VP7 of rotavirus strain RRV (G3P[3]) (simian rotavirus, UniProt P12476 51-326); assay: cell-based or functional assay
[4] = molecular target: VP7 of rotavirus strain DS1 (G2P[4]) (human rotavirus); assay: cell-based or functional assay
[5] = molecular target: VP7 of rotavirus strain OSU (G5P[7]) (porcine rotavirus); assay: cell-based or functional assay
[6] = molecular target: T2, CDC-9 triple layered particles (TLPs), G1P[8] (human rotavirus); assay: ELISA, CDC-9 TLPs
[7] = molecular target: T1, VP7 of rotavirus strain RRV (G3P[3]); assay: immunostaining, RV-infected MA104 cells
[8] = molecular target: T3, VP7 of rotavirus strain DS1 (G2P[4]) (human rotavirus); assay: immunostaining, RV-infected MA104 cells
T3 construct: whole, on cells

[9] = molecular target: T4, VP7 of rotavirus strain OSU (G5P[7]) (porcine rotavirus); assay: immunostaining, RV-infected MA104 cells
T4 construct: whole, on cells; also called OSU G5[7]

[10] = molecular target: T5, VP7 of rotavirus strain ST3 (G4P[6]) (human rotavirus); assay: immunostaining, RV-infected MA104 cells
T5 construct: whole, on cells

[11] = molecular target: T6, VP4 of rotavirus strain Wa (G1P[8]) (human rotavirus, UniProt P11193 1-775); assay: cell-based or functional assay
[12] = molecular target: T6, VP4 of rotavirus strain Wa (G1P[8]); assay: immunostaining, RV-infected MA104 cells
[13] = molecular target: VP4 of rotavirus strain 69M (G8P[10]) (human rotavirus); assay: cell-based or functional assay
[14] = molecular target: VP4 of rotavirus strain #321 (G10P[11]) (human rotavirus); assay: cell-based or functional assay
[15] = molecular target: VP4 of rotavirus strain NCDV (G6P[1]) (bovine rotavirus); assay: cell-based or functional assay
[16] = molecular target: VP4 of rotavirus strain OSU (G5P[7]) (porcine rotavirus); assay: cell-based or functional assay
[17] = molecular target: T7, VP4 of rotavirus strain NCDV (G6P[1]) (bovine rotavirus); assay: immunostaining, RV-infected MA104 cells
T7 construct: whole, on cells

[18] = molecular target: T8, VP4 of rotavirus strain DS1 (G2P[4]) (human rotavirus, UniProt Q14197); assay: immunostaining, RV-infected MA104 cells
T8 construct: whole, on cells

[19] = molecular target: T9, VP4 of rotavirus strain ST3 (G4P[6]) (human rotavirus); assay: immunostaining, RV-infected MA104 cells
T9 construct: whole, on cells

[20] = molecular target: T10, VP4 of rotavirus strain OSU (G5P[7]) (porcine rotavirus); assay: immunostaining, RV-infected MA104 cells
T10 construct: whole, on cells; also called OSU G5[7]

[21] = molecular target: T2, CDC-9 triple layered particles (TLPs), …; assay: cell-based or functional assay
[22] = molecular target: T8, VP4 of rotavirus strain DS1 (G2P[4]); assay: cell-based or functional assay
[23] = molecular target: T11, VP7 of rotavirus strain Wa (G1P[8]) (human rotavirus, UniProt P03532 51-326); assay: cell-based or functional assay
[24] = molecular target: T11, VP7 of rotavirus strain Wa (G1P[8]); assay: immunostaining, RV-infected MA104 cells

T11 sequence (P03532 51-326 limits assumed): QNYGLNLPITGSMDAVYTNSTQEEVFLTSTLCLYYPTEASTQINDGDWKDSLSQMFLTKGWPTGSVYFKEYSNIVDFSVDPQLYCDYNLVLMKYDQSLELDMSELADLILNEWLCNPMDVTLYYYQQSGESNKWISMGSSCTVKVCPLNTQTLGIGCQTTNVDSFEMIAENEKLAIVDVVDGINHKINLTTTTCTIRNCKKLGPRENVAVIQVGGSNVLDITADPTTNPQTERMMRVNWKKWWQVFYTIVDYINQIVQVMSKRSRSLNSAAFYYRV
T6 sequence (P11193 whole entry): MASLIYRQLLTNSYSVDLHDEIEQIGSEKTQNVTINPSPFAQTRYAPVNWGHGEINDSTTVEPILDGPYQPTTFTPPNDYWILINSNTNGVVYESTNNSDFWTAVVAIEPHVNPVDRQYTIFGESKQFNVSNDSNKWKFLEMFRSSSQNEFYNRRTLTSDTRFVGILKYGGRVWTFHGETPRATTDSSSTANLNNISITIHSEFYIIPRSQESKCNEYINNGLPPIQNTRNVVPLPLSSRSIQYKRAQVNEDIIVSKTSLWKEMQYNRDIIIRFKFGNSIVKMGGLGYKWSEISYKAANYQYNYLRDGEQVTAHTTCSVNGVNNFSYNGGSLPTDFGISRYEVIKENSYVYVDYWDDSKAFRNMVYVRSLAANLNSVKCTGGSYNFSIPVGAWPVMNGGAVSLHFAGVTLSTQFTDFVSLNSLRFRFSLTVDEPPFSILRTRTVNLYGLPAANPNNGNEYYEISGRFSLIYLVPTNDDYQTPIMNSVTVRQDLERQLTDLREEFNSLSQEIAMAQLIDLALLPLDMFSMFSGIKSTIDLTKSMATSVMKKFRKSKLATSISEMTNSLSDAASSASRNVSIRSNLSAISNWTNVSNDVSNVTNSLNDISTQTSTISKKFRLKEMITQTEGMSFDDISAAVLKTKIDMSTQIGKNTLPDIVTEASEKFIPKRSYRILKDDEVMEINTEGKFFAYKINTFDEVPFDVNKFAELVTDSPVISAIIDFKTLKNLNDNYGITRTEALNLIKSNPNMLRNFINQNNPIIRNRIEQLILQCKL
T7 sequence (P17465 whole entry): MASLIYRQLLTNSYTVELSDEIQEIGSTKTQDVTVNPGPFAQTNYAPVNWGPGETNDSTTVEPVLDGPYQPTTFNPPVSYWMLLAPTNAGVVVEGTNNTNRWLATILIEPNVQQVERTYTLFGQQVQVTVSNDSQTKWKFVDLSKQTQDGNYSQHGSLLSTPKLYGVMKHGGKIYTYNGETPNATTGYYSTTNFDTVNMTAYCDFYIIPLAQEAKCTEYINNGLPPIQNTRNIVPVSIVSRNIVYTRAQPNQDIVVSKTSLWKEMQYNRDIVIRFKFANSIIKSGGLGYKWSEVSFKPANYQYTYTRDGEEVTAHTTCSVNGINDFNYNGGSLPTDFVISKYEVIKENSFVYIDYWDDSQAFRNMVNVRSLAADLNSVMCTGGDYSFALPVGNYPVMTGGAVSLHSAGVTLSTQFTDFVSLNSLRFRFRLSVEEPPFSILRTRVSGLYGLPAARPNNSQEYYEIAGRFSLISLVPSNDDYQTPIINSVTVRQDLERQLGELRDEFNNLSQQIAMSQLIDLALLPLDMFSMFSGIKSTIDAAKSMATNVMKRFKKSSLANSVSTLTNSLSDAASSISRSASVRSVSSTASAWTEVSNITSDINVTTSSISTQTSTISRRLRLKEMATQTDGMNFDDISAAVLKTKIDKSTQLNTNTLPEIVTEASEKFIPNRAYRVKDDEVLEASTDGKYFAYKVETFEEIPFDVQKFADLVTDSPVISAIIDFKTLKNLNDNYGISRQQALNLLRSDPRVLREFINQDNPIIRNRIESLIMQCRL
T1 sequence (P12476 51-326): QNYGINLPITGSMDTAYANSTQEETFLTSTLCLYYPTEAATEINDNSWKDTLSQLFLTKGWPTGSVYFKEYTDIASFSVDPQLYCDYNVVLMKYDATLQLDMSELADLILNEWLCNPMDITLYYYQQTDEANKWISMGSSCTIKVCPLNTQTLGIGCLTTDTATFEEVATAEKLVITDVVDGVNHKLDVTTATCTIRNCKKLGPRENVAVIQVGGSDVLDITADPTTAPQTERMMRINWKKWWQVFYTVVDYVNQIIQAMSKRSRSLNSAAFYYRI
T4 sequence (P08406 51-326): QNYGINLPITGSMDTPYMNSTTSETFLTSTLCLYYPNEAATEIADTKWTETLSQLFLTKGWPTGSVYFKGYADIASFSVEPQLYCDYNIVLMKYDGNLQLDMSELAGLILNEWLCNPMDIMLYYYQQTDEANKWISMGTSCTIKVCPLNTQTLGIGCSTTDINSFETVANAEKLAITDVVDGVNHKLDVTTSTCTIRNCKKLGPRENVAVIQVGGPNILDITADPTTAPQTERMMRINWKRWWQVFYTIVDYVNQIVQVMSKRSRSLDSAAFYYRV
T10 sequence (P11114 whole entry): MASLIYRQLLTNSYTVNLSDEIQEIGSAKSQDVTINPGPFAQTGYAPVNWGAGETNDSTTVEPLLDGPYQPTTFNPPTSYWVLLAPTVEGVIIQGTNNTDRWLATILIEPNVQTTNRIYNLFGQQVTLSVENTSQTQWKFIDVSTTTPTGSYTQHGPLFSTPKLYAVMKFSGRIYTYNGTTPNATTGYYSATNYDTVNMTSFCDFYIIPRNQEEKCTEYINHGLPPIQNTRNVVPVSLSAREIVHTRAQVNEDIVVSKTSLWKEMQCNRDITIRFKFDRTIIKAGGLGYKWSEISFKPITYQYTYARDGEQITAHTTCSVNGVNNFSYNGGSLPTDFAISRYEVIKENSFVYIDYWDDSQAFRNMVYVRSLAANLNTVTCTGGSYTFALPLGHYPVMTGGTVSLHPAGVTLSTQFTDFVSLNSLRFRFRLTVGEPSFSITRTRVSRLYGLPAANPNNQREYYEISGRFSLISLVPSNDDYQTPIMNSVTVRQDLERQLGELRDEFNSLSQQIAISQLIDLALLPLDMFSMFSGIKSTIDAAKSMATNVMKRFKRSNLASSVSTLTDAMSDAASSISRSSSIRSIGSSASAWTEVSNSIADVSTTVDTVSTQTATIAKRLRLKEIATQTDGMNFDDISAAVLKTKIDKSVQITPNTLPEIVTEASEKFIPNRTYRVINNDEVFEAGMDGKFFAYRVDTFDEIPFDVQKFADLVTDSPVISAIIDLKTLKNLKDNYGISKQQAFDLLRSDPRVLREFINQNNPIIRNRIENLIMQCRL
T3 sequence (P11850 51-326): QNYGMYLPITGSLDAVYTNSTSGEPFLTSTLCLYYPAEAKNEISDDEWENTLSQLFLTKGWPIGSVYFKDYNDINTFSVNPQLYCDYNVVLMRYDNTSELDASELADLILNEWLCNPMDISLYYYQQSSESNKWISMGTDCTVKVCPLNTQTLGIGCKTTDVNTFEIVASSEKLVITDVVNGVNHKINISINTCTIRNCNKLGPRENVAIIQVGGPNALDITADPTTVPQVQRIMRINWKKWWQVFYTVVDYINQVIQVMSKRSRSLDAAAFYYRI
T9 sequence (P11200 whole entry): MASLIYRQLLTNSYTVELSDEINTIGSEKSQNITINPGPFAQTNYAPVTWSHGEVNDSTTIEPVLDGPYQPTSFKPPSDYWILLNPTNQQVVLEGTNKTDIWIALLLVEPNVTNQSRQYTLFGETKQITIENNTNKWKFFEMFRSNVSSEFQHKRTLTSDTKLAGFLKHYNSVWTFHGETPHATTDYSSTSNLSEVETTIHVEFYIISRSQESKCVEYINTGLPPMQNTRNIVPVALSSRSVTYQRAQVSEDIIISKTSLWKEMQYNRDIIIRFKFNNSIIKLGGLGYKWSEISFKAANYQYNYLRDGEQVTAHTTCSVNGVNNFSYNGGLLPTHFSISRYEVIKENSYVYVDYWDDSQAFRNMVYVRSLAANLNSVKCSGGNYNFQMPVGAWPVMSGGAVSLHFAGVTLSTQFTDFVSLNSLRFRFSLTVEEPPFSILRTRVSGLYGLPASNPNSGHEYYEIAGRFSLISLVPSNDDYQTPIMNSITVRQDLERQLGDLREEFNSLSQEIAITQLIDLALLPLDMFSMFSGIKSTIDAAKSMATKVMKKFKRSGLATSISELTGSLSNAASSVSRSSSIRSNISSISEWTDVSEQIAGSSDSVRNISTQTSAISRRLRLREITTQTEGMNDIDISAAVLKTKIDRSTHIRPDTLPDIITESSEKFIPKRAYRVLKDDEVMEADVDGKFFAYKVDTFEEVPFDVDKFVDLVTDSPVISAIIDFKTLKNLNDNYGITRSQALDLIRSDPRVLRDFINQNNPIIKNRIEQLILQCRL
T5 sequence (P10501 51-326): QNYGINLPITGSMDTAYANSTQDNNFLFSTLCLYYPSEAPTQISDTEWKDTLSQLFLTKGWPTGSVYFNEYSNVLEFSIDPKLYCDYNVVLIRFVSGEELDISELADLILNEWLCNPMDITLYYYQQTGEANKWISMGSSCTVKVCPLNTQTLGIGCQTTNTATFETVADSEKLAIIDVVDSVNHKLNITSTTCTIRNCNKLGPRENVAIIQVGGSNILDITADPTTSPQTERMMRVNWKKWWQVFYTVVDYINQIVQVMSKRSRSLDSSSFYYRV

B1: mAb #57 (antibody, V domains shown)
VH: QVQLVESGGGVVQSGRSLRLSCAASGFTFRSYAMHWVRQAPGKGLEWVADLSLDGSHKYADSVRGRFTISSDSSKNTVYLQMNSLRTEDTAIYYCARAAGIMVAGTFLTEFYFDYWGQGTLVTVSS
VL: QSVLTQPPSVSGAPGQRVTISCTGSSSNIGAGYDVHWYQQLPGTAPKLLIYGNIKRPSGVPDRFSGSKSGTSASLAITGLQTEDEADYYCQSYDSSLSAYYVFGTGTRVTVL
notes: also called mAb ID: 57; Mab No. 57
[1]
  in vitro neutralization: > 625 ng/mL
[2]
  in vitro neutralization: > 625 ng/mL
[3]
  minimum neutralizing concentration: 1.2 ng/mL
[4]
  minimum neutralizing concentration: 4.9 ng/mL
[5]
  minimum neutralizing concentration: 19.5 ng/mL
[6]
  Minimum concentration for TLP binding: 0.5 ng/mL
[7]
  Endpoint immunostaining concentration: 5 ng/mL
[8]
  Endpoint immunostaining concentration: 0.5 ng/mL
[9]
  Endpoint immunostaining concentration: 50 ng/mL
[10]
  Endpoint immunostaining concentration: 500 ng/mL

B2: mAb #33 (antibody, V domains shown)
VH: DVQLVESGGGLVQPGGPSRLSCSASRFTFSNYAMYWVRQAPGKGLEYVSSISSDGGSTYYAESVKGRFTISRDNSKNTLYLQMRSLRAEDAAVYYCVTDVLRLPYSTGWSPGDFIYWGQGTLVTVSS
VL: DIQMTQSPSILYASVGDRVTITCRASQSVSSWLAWYQQKPGKVPKLLIYQASTLENGVPSRFSGSGSGTEFILTISSLQPDDFATYYCQHYNVLWTFGQGTKVEI
notes: also called mAb ID: 33; Mab No. 33
[11]
  minimum neutralizing concentration: 2.4 ng/mL
[12]
  Endpoint immunostaining concentration: 50 ng/mL

B3: mAb #41 (antibody, V domains shown)
VH: EVQLVESGGGPVQPGGSLKLSCAASGFTFSNYEMYWVRQAPGKGLEWVSYISTSPAITYYADSVRGRFTISRDNAKSSLYLHMNSLRAEDTAVYYCATISHQQFSSGWNAWFDPWGQGTLVTVSS
VL: NFMLTQPHSVSESPGKTVTISCTGSSGSIASNYVQWYRQRPGSAPTTVIYENYQRPSGVPARFSGSIDRSSNSASLTISGLQTDDEADYYCQSYDNNNLWVFGGGTKLTVL
notes: also called mAb ID: 41; Mab No. 41
[11]
  minimum neutralizing concentration: 0.6 ng/mL
[12]
  Endpoint immunostaining concentration: 0.5 ng/mL

B4: mAb #49 (antibody, V domains shown)
VH: DVQLVESGGGLVQPGGSVRLSCSASRFTFSNYAMYWVRQAPGKGLEYVSSISSDGGSTYYAESVKGRFTISRDNSKNTLYLQMRSLRAEDAAVYYCVTDVLRLPYSTGWSPGDFIYWGQGTLVTVSS
VL: DIQMTQSPSILYASVGDRVTITCRASQSVSSWLAWYQQKPGKVPKLLIYQASTLENGVPSRFSGSGSGTEFILTISSLQPDDFATYYCQHYNVLWTFGQGTKVEIK
notes: also called mAb ID: 49; Mab No. 49
[13]
  in vitro neutralization: > 625 ng/mL
[14]
  in vitro neutralization: > 625 ng/mL
[15]
  minimum neutralizing concentration: 39.1 ng/mL
[16]
  minimum neutralizing concentration: 156 ng/mL
[11]
  minimum neutralizing concentration: 39.1 ng/mL
[6]
  Minimum concentration for TLP binding: 5 ng/mL
[17]
  Endpoint immunostaining concentration: 5.6 ng/mL
[18]
  Endpoint immunostaining concentration: 0.5 ng/mL
[19]
  Endpoint immunostaining concentration: 5 ng/mL
[20]
  Endpoint immunostaining concentration: 5.6 ng/mL
[12]
  Endpoint immunostaining concentration: 5 ng/mL

B5: mAb #47 (antibody, V domains shown)
VH: QVQLQESGPGLVKPSETLSLTCSVSGGSISVYYWNWIRQSPGKGLEWIASMYYTGITNYNPSLKSRVTMSVDMSKNQFSLKLSSVTAADTAVYYCARTMGIDQNNRGWPPAGYYFGMDVWGQGTTVTVSS
VL: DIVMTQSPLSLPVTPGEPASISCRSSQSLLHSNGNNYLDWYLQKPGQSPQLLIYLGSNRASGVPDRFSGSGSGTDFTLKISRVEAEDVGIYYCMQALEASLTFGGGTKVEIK
notes: also called mAb ID: 47; Mab No. 47
[13]
  in vitro neutralization: > 625 ng/mL
[14]
  in vitro neutralization: > 625 ng/mL
[21]
  minimum neutralizing concentration: 4.9 ng/mL
[22]
  minimum neutralizing concentration: 4.9 ng/mL
[6]
  Minimum concentration for TLP binding: 0.5 ng/mL
[18]
  Endpoint immunostaining concentration: 0.5 ng/mL
[12]
  Endpoint immunostaining concentration: 0.5 ng/mL

B6: mAb #27 (antibody, V domains shown)
VH: QVQLQESGPGLVKPLETLSLTCAVSGVSINSYYWSWIRQPPGKGLEWIGNVFYSGSTKYNPSLESRVAMTVDSSRNQVSLRLNSVTAADTAVYYCAREGVGYGYNNYGGNWFDPWGQGTLVTVSS
VL: EVVLTQSPGTLSLSPGERVTLSCRASQSVTSSNLAWYQQKPGQTPRLLISGASSRATGIPDRFSGSGSGTDFTLTISRLEPEDFAVYYCQQYANSPVTFGGGTKLEIK
notes: also called mAb ID: 27; Mab No. 27
[23]
  minimum neutralizing concentration: 0.3 ng/mL
[24]
  Endpoint immunostaining concentration: 0.5 ng/mL

B7: mAb #46 (antibody, V domains shown)
VH: QVQLQESGPGLVKPSETLSLTCTVSGGSINSYYWSWIRQSPGKGLEWIGYVFYSGITKYNPSLQSRVTISLDMGKNQFSLKLTSVNAADAAVYYCARNFPSYTPDWFFDLWGRGTLVTVSS
VL: EIVLTQSPGTLSLSPGERATLSCRASQSVSSDNLAWYQQKPGQPPRLLIYGASHRATGIPDRFSGSGSGTDFTLTISRLEPEDFAVYHCQQYGSSPLTFGGGTKVEIK
notes: also called mAb ID: 46; Mab No. 46
[1]
  in vitro neutralization: > 625 ng/mL
[2]
  in vitro neutralization: > 625 ng/mL
[23]
  minimum neutralizing concentration: 2.4 ng/mL
[6]
  Minimum concentration for TLP binding: 0.5 ng/mL
[24]
  Endpoint immunostaining concentration: 0.5 ng/mL

B8: mAb #30 (antibody, V domains shown)
VH: QVQLVQSGAEVKKPGASVTVSCKASGYAFTSFYLHWVRQAPGQGLEWMGIINPSDGRTRYAQKFQGRVTMTSDTSTNTVYVELSSLRSEDTAIYYCARGAIGNYNAREALDVWGRGTTVTVSS
VL: EIVMTQSPATLSVSPGESATLSCRASQSINSNLAWYQQKPGQAPRLLIFSASSRATGIPARFSGSGSGTEFTLTISSLQSDDFAVYYCQQYNIWPPEHTFGQGTRLQIK
notes: also called mAb ID: 30; Mab No. 30
[11]
  minimum neutralizing concentration: 0.6 ng/mL
[12]
  Endpoint immunostaining concentration: 5 ng/mL

B9: mAb #2 (antibody, V domains shown)
VH: EVQLVESGGGLVKPGGSLRLSCKASGLIVSDAWMSWVRQSPGKGLEWVGRIKSEINGGTIDYAAPVKGRFTILRDDSKNTLYLQINSLKTEDTAVYYCTTRLLFSPWGQGTLVTVSS
VL: QPVLTQPPSSSASPGESARLTCTLPSDINVAYYNIYWYQQKPGSPPRYLLYYYSDSDQGQGSGVPSRFSGSKDASANTGILFISGLQSEDEADYYCMIWTSNASMFGGGTKLTVL
notes: also called mAb ID: 2; Mab No. 2
[12]
  Endpoint immunostaining concentration: 5 ng/mL
